According to article PMC1802567:
Like-named read-outs stand apart in the source and are kept apart here.

Legend:
ΔNp63β = target: T1, ΔNp63β (UniProt Q9H3D4-4 1-461); test: EMSA
T1 sequence: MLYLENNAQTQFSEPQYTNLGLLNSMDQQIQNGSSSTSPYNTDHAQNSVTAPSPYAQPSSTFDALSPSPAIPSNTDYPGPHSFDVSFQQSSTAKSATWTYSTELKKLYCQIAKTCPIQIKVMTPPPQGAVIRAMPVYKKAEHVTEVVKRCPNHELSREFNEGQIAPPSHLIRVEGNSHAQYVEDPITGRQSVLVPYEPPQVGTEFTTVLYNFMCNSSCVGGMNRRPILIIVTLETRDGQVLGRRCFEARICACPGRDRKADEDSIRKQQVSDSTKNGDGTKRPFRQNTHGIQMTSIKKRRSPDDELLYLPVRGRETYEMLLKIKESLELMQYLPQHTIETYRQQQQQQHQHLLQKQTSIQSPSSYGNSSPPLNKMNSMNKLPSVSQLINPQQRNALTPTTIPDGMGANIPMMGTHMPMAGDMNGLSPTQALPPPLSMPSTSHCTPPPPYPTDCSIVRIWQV

p73β [1] = target: T2, p73β (UniProt O15350-2 1-499); test: EMSA
T2 sequence: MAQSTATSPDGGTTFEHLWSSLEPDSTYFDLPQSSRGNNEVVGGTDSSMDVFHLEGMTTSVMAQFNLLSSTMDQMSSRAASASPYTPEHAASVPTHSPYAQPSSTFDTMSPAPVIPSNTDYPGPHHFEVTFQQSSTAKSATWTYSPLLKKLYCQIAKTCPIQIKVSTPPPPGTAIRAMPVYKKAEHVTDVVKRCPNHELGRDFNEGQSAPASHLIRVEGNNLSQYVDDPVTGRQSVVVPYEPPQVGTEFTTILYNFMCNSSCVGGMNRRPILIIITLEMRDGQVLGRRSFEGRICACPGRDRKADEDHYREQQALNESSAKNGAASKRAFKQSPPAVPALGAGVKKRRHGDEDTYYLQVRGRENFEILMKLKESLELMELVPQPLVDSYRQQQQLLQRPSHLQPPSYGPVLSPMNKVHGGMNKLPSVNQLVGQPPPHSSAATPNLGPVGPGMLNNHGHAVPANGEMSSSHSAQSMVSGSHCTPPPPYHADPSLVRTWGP

p53 [2] = target: T3, p53 (UniProt P04637 1-393); test: EMSA
p73β(C262S) = target: T4, p73β(C262S) (UniProt O15350-2 1-499, C262S); test: DNA immunobinding assay
T4 sequence: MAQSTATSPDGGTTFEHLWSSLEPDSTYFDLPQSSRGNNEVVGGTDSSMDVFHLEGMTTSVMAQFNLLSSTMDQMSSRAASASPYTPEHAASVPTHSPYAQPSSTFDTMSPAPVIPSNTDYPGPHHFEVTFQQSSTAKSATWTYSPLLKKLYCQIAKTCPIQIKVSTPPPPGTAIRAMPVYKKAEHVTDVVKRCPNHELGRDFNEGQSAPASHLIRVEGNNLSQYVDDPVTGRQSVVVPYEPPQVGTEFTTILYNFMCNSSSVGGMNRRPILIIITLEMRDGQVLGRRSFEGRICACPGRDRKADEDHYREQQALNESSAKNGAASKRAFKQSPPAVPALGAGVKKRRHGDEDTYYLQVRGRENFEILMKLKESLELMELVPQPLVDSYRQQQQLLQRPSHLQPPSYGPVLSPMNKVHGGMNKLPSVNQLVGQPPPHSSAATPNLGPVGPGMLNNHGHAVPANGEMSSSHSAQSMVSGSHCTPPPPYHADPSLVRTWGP

p73α = target: T5, p73α (UniProt O15350 1-636); test: EMSA
T5 sequence: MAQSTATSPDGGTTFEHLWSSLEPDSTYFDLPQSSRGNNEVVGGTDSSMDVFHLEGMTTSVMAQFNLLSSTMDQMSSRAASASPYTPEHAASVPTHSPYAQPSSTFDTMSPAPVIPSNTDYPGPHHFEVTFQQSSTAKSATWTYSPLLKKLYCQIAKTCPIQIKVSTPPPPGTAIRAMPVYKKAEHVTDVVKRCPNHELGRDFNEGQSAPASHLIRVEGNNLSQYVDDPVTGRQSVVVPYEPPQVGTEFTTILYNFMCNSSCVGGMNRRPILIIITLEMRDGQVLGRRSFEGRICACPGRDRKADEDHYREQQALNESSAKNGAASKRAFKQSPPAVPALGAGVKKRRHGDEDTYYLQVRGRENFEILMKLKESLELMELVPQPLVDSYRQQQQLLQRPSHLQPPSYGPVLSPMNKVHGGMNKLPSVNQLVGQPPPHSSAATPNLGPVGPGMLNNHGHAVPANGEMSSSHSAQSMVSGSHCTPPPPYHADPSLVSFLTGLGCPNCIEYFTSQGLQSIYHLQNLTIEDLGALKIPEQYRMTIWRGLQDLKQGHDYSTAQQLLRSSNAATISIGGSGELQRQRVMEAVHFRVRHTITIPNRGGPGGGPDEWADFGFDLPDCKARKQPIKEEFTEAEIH

p73β [3] = target: T2, p73β; test: EMSA; remark: listed apart in the source
p73β [4] = target: T2, p73β; test: EMSA; remark: listed apart in the source
p73β [5] = target: T2, p73β; test: EMSA; remark: listed apart in the source
p53 [6] = target: T3, p53; test: EMSA; remark: listed apart in the source

T3 sequence (P04637 whole entry): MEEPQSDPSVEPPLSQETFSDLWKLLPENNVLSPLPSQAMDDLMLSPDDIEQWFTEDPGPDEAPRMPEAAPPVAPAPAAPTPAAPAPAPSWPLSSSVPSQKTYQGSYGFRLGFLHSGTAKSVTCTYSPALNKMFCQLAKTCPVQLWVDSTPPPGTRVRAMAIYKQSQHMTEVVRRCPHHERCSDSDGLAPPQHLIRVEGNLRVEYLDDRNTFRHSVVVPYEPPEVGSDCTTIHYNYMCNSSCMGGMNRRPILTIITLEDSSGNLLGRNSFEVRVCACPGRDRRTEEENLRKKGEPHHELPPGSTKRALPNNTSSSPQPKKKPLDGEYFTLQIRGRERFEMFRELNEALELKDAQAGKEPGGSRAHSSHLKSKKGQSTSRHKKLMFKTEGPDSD

B1: p21 5' site (dsDNA)
DNA 1: AGCTAGTAGAGCGAACATGTCCCAACATGTTGGCGTGCTGCAGC
DNA 2: GCTGCAGCACGCCAACATGTTGGGACATGTTCGCTCTACTAGCT
Q: Does B1 bind (ΔNp63β)?
A: binds

Q: Does B1 bind (p73β [1])?
A: binds

Q: Does B1 bind (p53 [2])?
A: binds

Q: What about the binding signal (p73β(C262S)) of the same binder?
A: 1.5 fold over background

Q: Does B1 bind (p73α)?
A: binds

B2: PUMA (dsDNA)
DNA 1: AGCTAGTAGAGCCTGCAAGTCCTGACTTGTCCGCGTGCTGCAGC
DNA 2: GCTGCAGCACGCGGACAAGTCAGGACTTGCAGGCTCTACTAGCT
Q: Does B2 bind (p73β [3])?
A: binds

B3: PIG3 (dsDNA)
DNA 1: AGCTAGTAGAGCCAGCTTGCCCACCCATGCTCGCGTGCTGCAGC
DNA 2: GCTGCAGCACGCGAGCATGGGTGGGCAAGCTGGCTCTACTAGCT
Q: Does B3 bind (p73β [4])?
A: binds

Q: Does B3 bind (p53 [2])?
A: binds

B4: PPC (dsDNA)
DNA 1: AGCTAGTAGAGCTGGCATGTCCCGACTTGTTAGCGTGCTGCAGC
DNA 2: GCTGCAGCACGCTAACAAGTCGGGACATGCCAGCTCTACTAGCT
Q: Does B4 bind (p73β [5])?
A: binds

Q: Does B4 bind (p53 [6])?
A: binds
